Results taken from US20210230600, “NUCLEIC ACID-DRUG COMPLEX AND USE THEREOF” (Industrial Technology Research Institute, published 2021).

T1: TLR9 (Mus musculus, UniProt Q9EQU3 Q9EQU3:26-1032)
T1 sequence: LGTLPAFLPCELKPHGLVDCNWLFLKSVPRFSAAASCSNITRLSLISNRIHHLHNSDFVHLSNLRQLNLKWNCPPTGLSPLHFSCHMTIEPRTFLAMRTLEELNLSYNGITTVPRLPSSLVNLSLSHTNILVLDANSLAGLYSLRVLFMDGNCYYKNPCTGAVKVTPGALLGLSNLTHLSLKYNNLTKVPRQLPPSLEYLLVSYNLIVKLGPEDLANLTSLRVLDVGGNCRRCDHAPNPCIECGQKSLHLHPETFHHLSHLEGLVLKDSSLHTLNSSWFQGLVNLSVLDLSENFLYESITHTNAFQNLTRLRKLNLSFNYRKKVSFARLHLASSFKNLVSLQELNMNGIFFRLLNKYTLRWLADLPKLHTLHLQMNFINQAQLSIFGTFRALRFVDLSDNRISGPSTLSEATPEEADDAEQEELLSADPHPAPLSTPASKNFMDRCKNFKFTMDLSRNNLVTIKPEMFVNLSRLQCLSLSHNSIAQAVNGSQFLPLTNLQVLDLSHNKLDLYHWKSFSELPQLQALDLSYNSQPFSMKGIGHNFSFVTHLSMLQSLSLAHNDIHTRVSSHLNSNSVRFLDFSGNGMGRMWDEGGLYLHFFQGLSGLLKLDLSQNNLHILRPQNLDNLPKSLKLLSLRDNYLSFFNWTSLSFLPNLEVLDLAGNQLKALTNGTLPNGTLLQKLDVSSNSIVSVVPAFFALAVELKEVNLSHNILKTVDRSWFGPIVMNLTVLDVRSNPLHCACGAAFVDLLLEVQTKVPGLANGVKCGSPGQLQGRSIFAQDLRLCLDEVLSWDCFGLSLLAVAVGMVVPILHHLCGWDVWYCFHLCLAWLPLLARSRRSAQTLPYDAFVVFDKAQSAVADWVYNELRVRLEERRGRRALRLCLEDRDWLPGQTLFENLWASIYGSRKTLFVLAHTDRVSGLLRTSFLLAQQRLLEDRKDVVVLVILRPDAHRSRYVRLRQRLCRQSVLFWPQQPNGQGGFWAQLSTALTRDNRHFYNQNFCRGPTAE

B1: ApDC5-PS (ssDNA)
DNA: TCGAACGTTCGAACGTTCGAACGTTCGAATCACATCAACTCATTGATAGACAATGCGTCC
modifications: PS at all linkages of the CpG part
B2: ApDC5-7PS (ssDNA)
DNA: B1 DNA
modifications: PS at part of the linkages of the CpG part
B3: PDL1-CpG29-9PS (ssDNA)
DNA: CACATCAACTCATTGATAGACAATGCGTCCTTCGAACGTTCGAACGTTCGAACGTTCGAA
modifications: PS at part of the linkages of the CpG part
B4: ApDC-A21A (ssDNA)
DNA: TCGAACGTTCGAACGACTCATTGATAGACAATGCGTTCGAACGTTCGAACG
modifications: PS at all linkages of the CpG part
B5: PDL1-CpG30-PS (ssDNA)
DNA: CACATCAACTCATTGATAGACAATGCGTCCTCGAACGTTCGAACGTTCGAACGTTCGAAT
modifications: PS at all linkages of the CpG part
B6: ApDC-A33B (ssDNA)
DNA: TTTCGAACGTTCGAACGCCACATCAACTCATTGATAGACAATGCGTCCACCGTTCGAACGTTCGATT
modifications: PS at part of the linkages of the CpG part
B7: ApDC-A21B (ssDNA)
DNA: TCGAACGTTCGAACGACTCATTGATAGACAATGCGTTTCGAACGTTCGAAT
modifications: PS at all linkages of the CpG part

Legend:
Conditions in all cases: tags: HEK-Blue mouse TLR9 reporter cells, InvivoGen
TLR9 [1] = target: T1, TLR9; assay: cell_activity; SEAP reporter activation, 37 C; 5.5 nM in FIG. 5 experiment
Protocol: (§1) HEK-Blue cells expressing mouse TLR9 (InvivoGen) were cultured in a complete DMEM medium (Dulbecco's modified Eagle's medium), which was supplemented with 100 μg/ml Normocin, 30 μg/ml Blasticidin, and 100 μg/ml Zeocin (all InvivoGen). HEK-Blue cells contained a secreted alkaline phosphatase (SEAP) reporting system, which produces colorimetric changes after interacting with TLR9.
(§2) HEK-Blue Detection mixture (cell culture medium for SEAP detection, InvivoGen) is used to detect the presence of SEAP, which is produced by stimulation of a TLR9 ligand through NF-κB activation. Detection mixture contained nutrients for cell growth and color substrate, whose color will change when it is hydrolyzed by SEAP. When HEK 293 cells expressing mouse TLR9 (InvivoGen) reached 60-80% confluency, they were collected, centrifuged and resuspended in Detection mixture. Cells (72,000) were seeded in each well of a 96-well plate (180 μl). The cells were then treated in combination with 20 μl PBS (unstimulated; as a negative control group), “CpG-L0-PS” (as a positive control group) or nucleic acid-drug complex samples of varying concentrations in PBS in duplicate wells, and incubated for 24 hours at 37° C. in 5% CO₂. The plate was read spectrophotometrically by using a multimode plate reader (Tecan, Infinite™ M200 PRO, Männedorf, Switzerland) at a wavelength of 620 nm to 655 nm.

TLR9 [2] = target: T1, TLR9; assay: cell_activity; SEAP reporter activation, 37 C
Protocol: as §1, §2

TLR9 [3] = target: T1, TLR9; assay: cell_activity; SEAP reporter activation, 37 C; remark: listed apart in the source
Protocol: as §1, §2
The experimental content is substantially the same as that of FIG. 4. The sample “CpG-L0-PS” in FIG. 5 corresponds to SEQ ID NO: 10 (which was not connected with anti-PD-L1 aptamer), and all phosphodiester bonds in the CpG oligonucleotide sequence were modified to phosphorothioate bonds.

TLR9 [4] = target: T1, TLR9; assay: cell_activity; SEAP reporter activation, 37 C; 2.1 nM in FIG. 5 experiment
Protocol: as §1, §2

TLR9 [5] = target: T1, TLR9; assay: cell_activity; SEAP reporter activation, 37 C; 1.3 nM in FIG. 5 experiment
Protocol: as §1, §2

Binder | EC50 (TLR9 [2]) [nM] | EC50 (TLR9 [3]) [nM] | further results
B1 | – | – | EC50 (TLR9 [1]): 2.48 nM
B2 | 72.2 | – | –
TCGAACGTTCGAATACTCATTGATAGACAATGCGTTTCGAACGTTCGAAT (ssDNA, PS at all linkages of the CpG part) [ApDC-B21B] | – | 0.6 | –
B3 | 149 | – | –
TCGAACGTTCGAACGTTCGAACGTTCGAAT (ssDNA, PS at all linkages) [CpG-L0-PS] | – | – | EC50 (TLR9 [4]): 2.09 nM
B4 | – | 0.6 | –
B5 | 2.36 | – | –
B6 | – | 16400 | –
B7 | – | – | EC50 (TLR9 [5]): 0.77 nM
